Reference: patent US20250019465A1, “COMPOSITIONS AND METHODS FOR RARE HEPARAN SULFATE GLYCAN-TARGETED CANCER TREATMENT” (THE BOARD OF REGENTS OF THE UNIVERSITY OF TEXAS SYSTEM, priority 2021, published 2025)

Columns and labels:
DC-HIL-Fc = DC-HIL-Fc binding to HS oligosaccharide microarray; conditions: DC-HIL-Fc 10 mg/ml, visualized by Cy-3, FIG. 1B
Method: Various HS oligosaccharides (4-8-mers of HS disaccharide) were imprinted on microarray (Gycan Therapeutics Inc). These glycans were chosen based on sulfation patterns in mammalian cells (FIG. 1A). DC-HIL-Fc (10 mg/ml) was applied and then hybridized to the microaway and visualized by Cy-3 (mean±SD, n=6). […] SVEC mouse endothelial cells or activated T-cells were then incubated with DC-HIL-Fc (10 mg/ml) plus indicated oligoglycans, and DC-HIL binding was fluorescently stained with anti-Fc Ab and FACS analysis. FIG. 1C provides histograms showing binding of Fc control (blue) or DC-HIL-Fc (red), respectively.

[1] = system: DC-HIL-induced angiogenesis; test: Matrigel plug assay of DC-HIL-induced angiogenesis; assay type: in vivo, mice; conditions: DC-HIL-Fc 200 nM with 10× molecular excess of glycan in matrigel, s.c., 2 weeks
Method: In order to test the role rHS (Glycan #12) plays in controlling angiogenesis, DC-HIL-Fc (DCH) or Fc (200 nM) was mixed with 10× molecular excess of Glycan #3 or Glycan #12 (See FIG. 1A) and added to matrigel, and implanted s.c. into mice; 2 weeks later, plugs were excised and observed for blood vessels under microscope. Representative photos are shown (FIG. 9A). Plugs were quantified for Hb content (FIG. 9B). Red-dashed line indicates Hb level in Fc-control plug. Data are shown average±SD, n=4.

B16 melanoma cells [2] = test: B16 melanoma s.c. tumor, intra-tumoral glycan injection; assay type: in vivo, B6 mice
Method: (§1) B16 melanoma cells (5×10^5 cells/mouse) were implanted s.c. into B6 mice (n=4); on day 6, 1 mg of Glycan #3 (G3) or Glycan #12 (G12, see FIG. 1A) was injected intra-tumorally 5 times every 2 days. Tumor volume was measured (FIG. 10A). On day 17, tumors (photos of 2 representatives) were excised. […] Similar experiments were performed with RenCa kidney cancer in BALB/c mice and data are shown in FIG. 10C (tumor volume) and 10D (expression of angiogenic factors). Data shown is representative of 2 experiments. *p<0.0001.

RenCa kidney cancer = RenCa kidney cancer tumor, intra-tumoral glycan injection; assay type: in vivo, BALB/c mice
Method: as §1

[3] = ELISA: DC-HIL-Fc binding to Glycan #12-coated wells with increasing dose of 1A7 SdAb; conditions: DC-HIL-Fc 1 mg/ml, increasing dose of 1A7 SdAb, FIG. 3D
Method: SdAbs were obtained as described in Example 2. All SdAb clones were purified from DNA-transfected CHO cells. […] Biotinylated Glycan #12 (0.5 mg/ml) was immobilized to ELISA wells precoated with streptavidin (1 mg/ml) and incubated with increasing doses of 1A7 SdAb (FIG. 3A), FGF2 (negative control, FIG. 3B) and VEGF (positive control, FIG. 3C). After incubating for 1 h, wells were washed and binding measured by anti-c-myc Ab (OD450); SdAb has the C-terminal c-myc tag. In FIG. 3D, DC-HIL-Fc (1 mg/ml) was incubated with Glycan #12-coated wells, with increasing dose of 1A7 SdAb. % inhibition is shown. […] In FIG. 3E: FGF2 or VEGF (0.25 or 0.5 mg/ml) was added to Glycan #12-wells with 0.5 mg/ml of 1A7 or control SdAb (Ctrl), which is specific for KLH. % inhibition is shown. To examine the expression of the 1A7 epitope, immortalized murine […] cells (SVEC) were treated with 50 mM Sodium Cholate (red histogram) or untreated (Blue). Next day, cells were analyzed by FACS for expression of 1A7 epitope (FIG. 3F). […] FIG. 3H summarizes all data from experiments of binding/inhibition and expression analysis on different tumor lines. “Block DC-HIL (or VEGF or FGF2)” means blocking of binding to Glycan #12.

[4] = HS glycan microarray analysis of 1A7 SdAb (53 glycan compounds); assay type: binding; conditions: 1A7 SdAb 10 μg, anti-c-myc label, FIG. 4
Method: 1A7 SdAb (10 μg) was hybridized with HS glycan microarray consisting of 53 glycan compounds (Glycan Therapeutics Inc) and fluorescently labeled with anti-c-myc. Hybridized arrays were analyzed for fluorescence intensity (U); average±sd, n=100). SdAb has the C-terminal c-myc tag.

B16 melanoma cells [5] = test: B16 melanoma s.c. tumor growth, i.p. 1A7 or KLH Ab; assay type: in vivo, mice; conditions: 10 mg/mouse i.p. every 2 days 5× from day 6, vs KLH Ab
Method: (§2) On day 6 after implantation s.c. of B16 melanoma cells (2×10^5 cells/mouse), mice were treated i.p. with 1A7 or KLH Ab (10 mg/mouse, every 2 days, 5×, shown by reverse arrows). In separate experiments, tumor free mice were injected intravenously (i.v) with 1A7 or KLH (10 mg/mouse) either one day before (d-1) or one day after (d1) intravenous (i.v) injection with B16 or LL2 cells (2×10^5 cells/mouse, n=5). On day 12 (for mice injected with B16 cells) or day 18 (for mice injected with LL2 cells), the number of GFP+ cells in 5×10^5 lung cells was determined via FACS. FIG. 11C-11E summarize numbers of positive cells in each condition.

B16 cells = test: Experimental lung metastasis after i.v. injection of B16 cells; assay type: in vivo, mice
Method: as §2
1A7 SdAb was compared to other standard treatments (e.g., anti-PDL1 antibody, anti-VEGFR2 antibodies) for its ability to inhibit metastasis using the B16 cell model. Mice (n=5) were injected i.v. with KLH, 1A7 SdAb (10 mg/mouse), anti-DC-HIL (DCH), anti-PDL1 (PL1), anti-VEGFR2 (VER) or combined PL1/VER (PL/VE) mAb ([…]). Next day, mice were given i.v. injection of 2×10^5 B16 cells/mouse. Note: Ab injection was a one-time treatment. On Day 14, lung was enumerated by FACS for GFP^+ cells (FIG. 12A) and the number in 5×10^5 lung cells (average±sd, n=5) are summarized (FIG. 12B). *p<0.0001; **p=0.007. Data are representative of 2 separate experiments. […]

LL2 cells = test: Experimental lung metastasis after i.v. injection of LL2 cells; assay type: in vivo, mice; conditions: day 18, vs KLH
Method: as §2

Pan-T cells = test: Anti-CD3-induced Pan-T cell proliferation (3H-thymidine) on wells coated with 1A7; assay type: cell-based, human; conditions: wells pre-coated with 4 mg/well Ab plus increasing doses of anti-CD3 Ab, 2 days, vs KLH control Ab
Method: The ability of 1A7 to affect induction of T-cell activation using anti-CD3 antibodies was tested. Pan-T cells isolated from blood sample of a healthy donor were incubated with wells (2×10^5 cells/well) pre-coated with 1A7 or KLH control Ab (4 mg/well) plus increasing doses of anti-CD3 Ab. After incubation for 2 days, ^3H-thymidine was pulsed for 16 h, harvested, and counted for cpm in cells. […] Data are shown average±SD, n=3

[6] = system: human SK-MEL-28 melanoma cell line; test: Lung metastasis of human SK-MEL-28 melanoma cells in xenograft NSG mice; assay type: in vivo; conditions: single i.v. injection 10 mg/mouse one day before SK-MEL-28 i.v., Day 14, vs KLH
Method: A final experiment was performed to determine the effect of an anti-rHS antibody on human lung metastasis in a xenograft mouse model. Immuno-deficient NSG mice (n=5) were injected i.v. with KLH or 1A7 SdAb (10 mg/mouse). Next day, mice were given i.v. injection of 2×10^5 human SK-MEL-28 melanoma cell line. Note: Ab injection is just one time. On Day 14, lung was enumerated by FACS for GFP^+ cells (FIG. 16A) and the number in 5×10^5 lung cells (average±sd, n=5) are summarized (FIG. 16B). *p<0.0001. Data are representative of 2 separate experiments. 1A7 single injection decreased human melanoma in lung by 84% (FIGS. 16A and 16B).

LacZ-LL2 cells = test: Spontaneous lung metastasis from resected s.c. LacZ-LL2 primary tumor; assay type: in vivo, mice; conditions: Ab injection every 3 days after tumor resection, lungs 2 weeks later
Method: Briefly, mice were implanted s.c. with LacZ-LL2 cells, 2 weeks later, tumor was resected surgically. Mice were then treated with Ab injection every 3 days. 2 weeks later, lungs were excised and stained with X-gal (labeled LacZ-LL2 cells in blue) and blue stains were counted. FIG. 17B provides representative images of lung sections stained with X-gal, showing by green or red arrows. The number of tumor cells per field of view (FOV) were counted and plotted in FIG. 17C alongside and average of 5 FOVs. Each dot represents an individual mouse.

B16F10 melanoma cells = test: B16F10 melanoma s.c. tumor growth and tumor IHC, rHS Ab vs PD1 Ab; assay type: in vivo, B57BL/6 mice
Method: Antitumor activity of rHS Ab to B16 melanoma was examined. Briefly, B16F10 melanoma cells (5×10^5 cells/mouse) were implanted s.c. into B57BL/6 mice (n=5). Six days later, mice were treated with i.p. injection of Ab every 2 days; 1A7 rHS Ab (20 mg/mouse), PD1 ([…]), rHS/PD1 (20 mg and 200 mg, respectively) or control (Ctrl) Ab ([…]). Tumor volume was measured every 2 days (FIG. 20A). On day 15, all mice were euthanized, tumors were excised and IHC-stained with marker Ab (CD4, CD8, CD11b, and CD31) (FIG. 20B). Positive staining is assayed by % positively stained areas in 4.5 mm2 view (mean±sd, n=5). […] Thus, rHS Ab inhibited melanoma growth, reversing immune suppression and tumor angiogenesis.

For “GlcNS6S-GlcA-GlcNS6S-IdoA2S-GlcNS6S-IdoA2S-GlcNS6S-GlcA [Glycan #12]”, the “binding of DC-HIL-Fc to each glycan as average RFU” value (DC-HIL-Fc) was “strongest binding”, the “DC-HIL-induced angiogenesis (blood vessels, Hb content of plugs)” value [1] was “completely abrogated” and the “Tumor volume (growth of melanoma)” value (B16 melanoma cells [2]; B16 s.c. in B6 mice, 1 mg glycan intra-tumorally 5 times every 2 days from day 6) was “markedly attenuated growth”. For the same molecule, the “tumor expression of angiogenic factors (qRT-PCR relative to GAPDH)” value (B16 melanoma cells [2]; B16 tumors excised on day 17) was “inhibited tumor expression of angiogenic factors”, the “Tumor volume (growth of kidney cancer)” value (RenCa kidney cancer; RenCa in BALB/c mice, intra-tumoral glycan) was “markedly attenuated growth” and the “tumor expression of angiogenic factors (qRT-PCR relative to GAPDH)” value (RenCa kidney cancer; RenCa tumors) was “inhibited tumor expression of angiogenic factors”.

B1: 1A7: single domain antibody clone, single variable heavy chain (VH), SEQ ID NO: 18, specific for rare heparan sulfate glycan (Glycan #12) (protein)
VHH: QVQLLESGGGLVQPGGSLRLSCAASGVKVSTKSMGWVRQAPGKGLEWVSTIARNDGSTYYADSVKGRFTISRDNSKNTLYLQMNSLRAEDTAVYYCARMKKNGGSKRQPHIRSWGQGTLVTVSS
modifications: Synthetic construct - Clone 1A7
With B1 the “competition with DC-HIL-Fc for binding to Glycan #12 (% inhibition)” value [3] was “compete for a similar binding site”, the “affinity for Glycan #12 (fluorescence intensity on HS glycan microarray)” value [4] was “robust affinity” and the “Tumor volume (tumor growth)” value (B16 melanoma cells [5]) was “significantly reduced”. For the same molecule, the “lung metastasis: number of GFP+ cells in 5×10^5 lung cells” value (“lung metastasis: number of GFP+ cells” below) (B16 cells; B16 i.v., single 10 mg/mouse i.v. one day before (d-1), day 12, vs KLH) was “significantly reduced”, the “growth of B16 metastasis (GFP+ cells in 5×10^5 lung cells) compared to other treatments” value (B16 cells; single i.v. 10 mg/mouse one day before B16 i.v., Day 14, comparators anti-PDL1, anti-VEGFR2 200 mg/mouse) was “inhibited growth of B16 metastasis, more than currently FDA-approved drugs” and the “lung metastasis: number of GFP+ cells” value (LL2 cells; single 10 mg/mouse i.v. one day after (d1)) was “significantly reduced”. The “lung metastasis: number of GFP+ cells” value (LL2 cells; single 10 mg/mouse i.v. one day before (d-1)) was “significantly reduced”, the “T cell replication (activation), 3H-thymidine cpm” value (Pan-T cells) was “significantly less replication” and the “decrease of human melanoma in lung (GFP+ cells in 5×10^5 lung cells)” value [6] was 84%. For the same molecule, the “spontaneous lung metastasis (tumor cells per field of view, X-gal)” value (LacZ-LL2 cells) was “significantly reduced”, the “Tumor volume (melanoma growth) compared with PD1 Ab” value (B16F10 melanoma cells; 20 mg/mouse i.p. every 2 days from day 6, PD1 200 mg/mouse) was “better outcomes than PD1 Ab” and the “tumor density of CD4 T cells (% positively stained areas, IHC)” value (B16F10 melanoma cells; tumors excised day 15) was “increased tumor densities”. For the same molecule, the “tumor density of CD8 T cells (% positively stained areas, IHC)” value (B16F10 melanoma cells; tumors excised day 15) was “increased tumor densities”, the “tumor density of CD11b (% positively stained areas, IHC)” value (B16F10 melanoma cells; tumors excised day 15) was “decreased densities” and the “tumor density of microvacuoles (CD31, % positively stained areas, IHC)” value (B16F10 melanoma cells; tumors excised day 15) was “decreased densities”.
